Substitutions are numbered along the chain they refer to. Values belong to the molecule of their own block, whether it stands above or below them.
What was measured:
[1] = target: VEGFR-3 (as used in the biosensor analysis) (UniProt P35916); test: SPR; conditions: ligand
[2] = target: VEGFR-2 (as used in the biosensor analysis) (UniProt P35968); test: SPR; conditions: ligand
[3] = target: VEGFR-3 (as used in the biosensor analysis) (UniProt P35916); test: SPR biosensor, 1:1 Langmuir model; reference VEGF-DSSTS.IISS on the same receptor
[4] = target: VEGFR-2 (as used in the biosensor analysis) (UniProt P35968); test: as above
[5] = target: VEGFR-2 (as used in the biosensor analysis) (UniProt P35968); test: SPR biosensor, 1:1 Langmuir model; reference VEGF-DSSTS.IISS on the same receptor; the preparation held traces of processed forms
[6] = target: T1, VEGFR-2 (as used in the biosensor analysis) (UniProt P35968 20-764); test: SPR
T1 chain: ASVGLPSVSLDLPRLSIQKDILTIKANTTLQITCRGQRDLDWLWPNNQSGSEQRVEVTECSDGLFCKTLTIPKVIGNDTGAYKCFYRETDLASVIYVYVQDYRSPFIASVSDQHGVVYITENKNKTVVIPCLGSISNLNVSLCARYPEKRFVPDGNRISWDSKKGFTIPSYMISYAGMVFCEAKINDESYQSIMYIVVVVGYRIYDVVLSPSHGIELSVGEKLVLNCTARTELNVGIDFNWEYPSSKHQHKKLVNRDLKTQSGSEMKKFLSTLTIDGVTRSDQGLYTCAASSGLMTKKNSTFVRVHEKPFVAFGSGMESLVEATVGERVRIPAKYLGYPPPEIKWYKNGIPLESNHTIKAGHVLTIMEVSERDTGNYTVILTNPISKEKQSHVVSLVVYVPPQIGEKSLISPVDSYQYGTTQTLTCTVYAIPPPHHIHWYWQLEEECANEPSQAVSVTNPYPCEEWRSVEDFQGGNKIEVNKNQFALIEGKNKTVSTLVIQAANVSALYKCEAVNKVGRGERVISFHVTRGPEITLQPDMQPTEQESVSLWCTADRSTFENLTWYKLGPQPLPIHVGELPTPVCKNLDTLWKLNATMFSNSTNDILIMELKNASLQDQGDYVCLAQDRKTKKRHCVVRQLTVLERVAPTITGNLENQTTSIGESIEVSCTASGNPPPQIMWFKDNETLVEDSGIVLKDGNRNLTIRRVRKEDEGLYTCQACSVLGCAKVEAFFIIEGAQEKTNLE

[7] = target: T2, VEGFR-3 (as used in the biosensor analysis) (UniProt P35916 25-775); test: SPR
T2 chain: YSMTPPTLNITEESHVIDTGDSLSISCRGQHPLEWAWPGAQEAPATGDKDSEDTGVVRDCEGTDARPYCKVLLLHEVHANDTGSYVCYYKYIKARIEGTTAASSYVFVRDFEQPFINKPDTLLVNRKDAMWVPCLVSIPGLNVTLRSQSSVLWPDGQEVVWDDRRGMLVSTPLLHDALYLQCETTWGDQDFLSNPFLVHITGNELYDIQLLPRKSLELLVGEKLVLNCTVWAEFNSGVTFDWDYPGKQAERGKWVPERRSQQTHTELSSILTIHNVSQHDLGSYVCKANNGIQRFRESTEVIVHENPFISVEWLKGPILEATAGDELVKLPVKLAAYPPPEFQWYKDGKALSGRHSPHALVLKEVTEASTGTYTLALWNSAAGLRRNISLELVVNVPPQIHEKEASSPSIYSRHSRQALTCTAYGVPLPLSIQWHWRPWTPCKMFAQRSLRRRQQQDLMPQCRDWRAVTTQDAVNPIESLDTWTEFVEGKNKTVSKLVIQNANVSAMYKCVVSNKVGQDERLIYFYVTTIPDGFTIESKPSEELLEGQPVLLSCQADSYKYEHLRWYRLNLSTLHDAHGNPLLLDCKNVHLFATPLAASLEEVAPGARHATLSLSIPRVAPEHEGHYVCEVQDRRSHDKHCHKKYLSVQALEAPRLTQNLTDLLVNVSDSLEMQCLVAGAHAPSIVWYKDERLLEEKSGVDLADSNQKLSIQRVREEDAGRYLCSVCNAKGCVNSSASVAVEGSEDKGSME

VEGFR-2 = VEGFR-2 (Homo sapiens, UniProt P35968); test: Biosensor analysis (surface plasmon resonance) of VEGF-D ligands on VEGFR-2; assay type: binding; conditions: 1:1 Langmurian model
Method: To determine the relative affinities of the ligands VEGF-DSSTS.IISS, VEGF-D-FULL-N-FLAG and mature VEGF-D (designated VEGF-DΔNΔC) for VEGFR-2 and VEGFR-3, the relative binding kinetics for these interactions was analyzed by biosensor analysis using surface plasmon resonance detection (Nice et al., Bioessays, 21:339-352, 1999). The preparations of VEGF-DSSTS.IISS and VEGF-DΔNΔC used for this analysis each consisted of one VEGF-D species devoid of other forms of VEGF-D but the preparation of VEGF-D-FULL-N-FLAG did contain traces of partially processed as well as full-length material, reflecting the capacity of wild-type full-length VEGF-D to be proteolytically processed in the 293EBNA cell cultures) from which these proteins were purified (see FIG. 10B). The binding constants for the interactions were obtained by analysis of the initial dissociation phase to obtain the kd, which was then used to constrain a global analysis of the association region of the curves, using regions of the curves where a 1:1 Langmurian model appeared to be operative.

furin = test: Knockdown of furin protein by shRNA (co-transfection of shRNA and furin expression constructs); assay type: cell-based, human
Excerpt: Short hairpin RNA (shRNA) primers targeting furin RNA were designed using an in-house primer design algorithm. These primer pairs form the shRNA structure that then results in functional siRNA targeting sequences 457-476 and 558-575 of open reading frame of human furin sequence (Genbank Accession No. NM_002569.2, SEQ ID NO: 21). The underlined sections are structural motifs for the formation of the small hairpin RNA structure and for the ligation of the annealed primers to the parental vector. In bold the 5′-3′ upper strand of the target sequence which is naturally a part of the primer sequence.
The above shRNA primers were generated to target the sequences 5′-GACGATGGCATCGAGAAGAA-3′ (SEQ ID NO: 19) and 5′-ACA CAC AGA TGA ATG ACA A-3′ (SEQ ID NO: 20). Primers were annealed by heating a mix of 60 pM of both primers in 50 μl annealing buffer (0.1 M potassium acetate, 2 mM magnesium acetate, 30 mM HEPES pH 7.4) at 94° C. for 4 min then 70° C. for 10 min and allowed to cool to room temperature. Annealing was verified in 3% low melting point agarose gel. The shRNA construct was then ligated into pMSCVpac mU6 which is a derivative of pMSCV (Clontech). The shRNAs were validated by assessing reduction of furin protein levels resulting from co-transfections of shRNA and furin expression constructs in 293EBNA cells or other cell lines stably overexpressing furin.

VEGFR-1-Ig = target: T3, VEGFR-1-Ig (human, UniProt P17948 27-758); test: pull-down with receptor-Ig on protein-A sepharose from LoVo conditioned medium, Western blot
T3 construct: extracellular domain; R&D Systems is named as its source; used as a negative control; also called soluble fusion protein of the extracellular domain of human VEGFR-1 and the Fc portion of human IgG; not shown: Fc portion of human IgG
Method: (§1) Binding to receptor extracellular domains was examined using soluble fusion proteins consisting of the extracellular domains of human VEGFR-1, VEGFR-2 or VEGFR-3 joined to the Fe portions of human IgG (referred to as VEGFR-1-Ig (R&D Systems), VEGFR-2-Ig and VEGFR-3-Ig) (Achen et al, Proc. Natl. Acad. Sci. USA 95 548-553, 1998). Protein-A sepharose beads were incubated overnight with the conditioned media of 293EBNA cells expressing VEGFR-1-Ig, VEGFR-2-Ig or VEGFR-3-Ig to precipitate the soluble receptor constructs. The soluble receptors bound to protein-A sepharose beads were recovered by centrifugation (5 minutes, 250×g, 4° C.) and washed twice with binding buffer (0.5% (w/v) BSA, 0.02% (v/v) Tween 20, 10 μg/ml heparin in phosphate buffered saline). The soluble receptors bound to protein-A sepharose beads were then incubated with the conditioned media of LoVo cells, that had been co-transfected with pVDAPEX FULL-N-FLAG and pcDNA3:furin, for three hours at room temperature, and washed twice with binding buffer. Proteins bound to the VEGFR-2-Ig and VEGFR-3-Ig constructs were analysed by reducing SDS-PAGE and Western blotting with a biotinylated antibody against the VHD of human VEGF-D (R&D Systems), followed by Streptavidin-horse radish peroxidase conjugate (Zymed).

[8] = target: T4, extracellular domain of human VEGFR-2 (VEGFR-2-Ig) (Homo sapiens, UniProt P35968); test: Precipitation with soluble receptor VEGFR-2-Ig from LoVo conditioned media; assay type: binding; conditions: conditioned media of LoVo cells co-transfected with VEGF-D-FULL-N-FLAG and furin
T4 construct: soluble fusion proteins consisting of the extracellular domains of human VEGFR-1, VEGFR-2 or VEGFR-3; made in house; host or cells: 293EBNA cells (conditioned media, captured on protein-A sepharose)
Method: as §1

[9] = target: T5, extracellular domain of human VEGFR-3 (VEGFR-3-Ig) (Homo sapiens, UniProt P35916); test: Precipitation with soluble receptor VEGFR-3-Ig from LoVo conditioned media; assay type: binding; conditions: conditioned media of LoVo cells co-transfected with VEGF-D-FULL-N-FLAG and furin
T5 construct: soluble fusion proteins consisting of the extracellular domains of human VEGFR-1, VEGFR-2 or VEGFR-3; made in house; host or cells: 293EBNA cells (conditioned media, captured on protein-A sepharose)
T5 sequence (P35916 25-775 limits assumed): T2 chain
Method: as §1

T3 sequence (P17948 27-758): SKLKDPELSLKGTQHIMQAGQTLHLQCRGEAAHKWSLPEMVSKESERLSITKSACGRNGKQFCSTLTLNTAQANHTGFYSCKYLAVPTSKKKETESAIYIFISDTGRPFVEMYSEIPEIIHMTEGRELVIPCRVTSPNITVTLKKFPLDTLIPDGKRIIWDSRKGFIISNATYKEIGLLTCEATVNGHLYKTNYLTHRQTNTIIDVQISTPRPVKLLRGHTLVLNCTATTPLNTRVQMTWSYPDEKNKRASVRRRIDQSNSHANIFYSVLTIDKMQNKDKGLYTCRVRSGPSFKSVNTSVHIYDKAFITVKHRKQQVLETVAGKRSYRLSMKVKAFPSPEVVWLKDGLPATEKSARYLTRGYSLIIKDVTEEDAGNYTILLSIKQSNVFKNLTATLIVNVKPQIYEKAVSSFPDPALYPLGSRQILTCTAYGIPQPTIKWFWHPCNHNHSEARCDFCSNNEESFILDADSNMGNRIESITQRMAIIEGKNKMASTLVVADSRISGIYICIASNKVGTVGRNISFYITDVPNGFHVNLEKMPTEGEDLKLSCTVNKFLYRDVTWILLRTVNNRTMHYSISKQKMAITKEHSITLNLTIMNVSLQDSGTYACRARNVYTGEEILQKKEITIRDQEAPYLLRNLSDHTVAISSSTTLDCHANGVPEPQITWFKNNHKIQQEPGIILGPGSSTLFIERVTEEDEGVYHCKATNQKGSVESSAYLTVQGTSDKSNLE
Chain of VEGFR-2 (P35968 20-1356): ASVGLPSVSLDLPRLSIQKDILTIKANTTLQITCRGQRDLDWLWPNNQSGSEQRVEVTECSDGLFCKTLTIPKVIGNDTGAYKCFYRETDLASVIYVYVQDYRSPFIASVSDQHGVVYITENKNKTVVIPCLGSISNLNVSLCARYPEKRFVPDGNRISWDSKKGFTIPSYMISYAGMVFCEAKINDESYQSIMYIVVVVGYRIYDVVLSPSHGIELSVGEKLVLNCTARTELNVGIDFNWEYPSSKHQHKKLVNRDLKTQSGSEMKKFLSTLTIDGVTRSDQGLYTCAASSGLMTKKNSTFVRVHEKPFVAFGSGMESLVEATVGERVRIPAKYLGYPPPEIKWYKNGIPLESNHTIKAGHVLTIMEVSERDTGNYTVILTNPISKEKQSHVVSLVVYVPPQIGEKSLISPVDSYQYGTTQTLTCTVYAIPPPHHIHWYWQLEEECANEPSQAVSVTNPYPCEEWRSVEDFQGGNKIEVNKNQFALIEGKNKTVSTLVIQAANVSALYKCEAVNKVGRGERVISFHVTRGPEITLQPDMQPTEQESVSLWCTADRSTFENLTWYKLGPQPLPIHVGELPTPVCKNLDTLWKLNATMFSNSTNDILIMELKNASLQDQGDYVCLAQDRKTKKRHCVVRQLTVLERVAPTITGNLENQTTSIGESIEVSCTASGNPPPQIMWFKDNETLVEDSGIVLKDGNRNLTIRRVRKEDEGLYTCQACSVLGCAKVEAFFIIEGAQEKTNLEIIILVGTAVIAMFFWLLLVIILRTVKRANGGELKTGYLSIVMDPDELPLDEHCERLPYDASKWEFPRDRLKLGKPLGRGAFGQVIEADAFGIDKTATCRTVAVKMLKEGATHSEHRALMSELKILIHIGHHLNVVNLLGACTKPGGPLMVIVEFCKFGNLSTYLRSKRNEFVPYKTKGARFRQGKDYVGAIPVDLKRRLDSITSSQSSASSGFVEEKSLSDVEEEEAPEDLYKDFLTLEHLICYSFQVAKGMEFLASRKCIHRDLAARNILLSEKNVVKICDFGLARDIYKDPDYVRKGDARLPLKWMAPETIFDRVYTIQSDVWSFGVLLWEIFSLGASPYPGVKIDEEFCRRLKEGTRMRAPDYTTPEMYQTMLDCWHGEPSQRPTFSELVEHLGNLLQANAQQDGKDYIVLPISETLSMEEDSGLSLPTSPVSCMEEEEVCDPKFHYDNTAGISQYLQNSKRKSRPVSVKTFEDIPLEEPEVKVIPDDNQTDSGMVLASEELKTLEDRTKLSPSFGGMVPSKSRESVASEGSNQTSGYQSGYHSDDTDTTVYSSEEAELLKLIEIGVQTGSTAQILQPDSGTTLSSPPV

B1: VEGF-D-FULL-N-FLAG (full-length VEGF-D tagged with FLAG at the N-terminus) (ligand)
chain: NEHGPVKRSSQSTLERSEQQIRAASSLEELLRITHSEDWKLWRCRLRLKSFTSMDSRSASHRSTRFAATFYDIETLKVIDEEWQRTQCSPRETCVEVASELGKSTNTFFKPPCVNVFRCGGCCNEESLICMNTSTSYISKQLFEISVPLTSVPELVPVKVANHTGCKCLPTAPRHPYSIIRRSIQIPEEDRCSHSKKLCPIDMLWDSNKCKCVLQEENPLAGTEDHSHLQEPALCGPHMMFDEDRCECVCKTPCPKDLIQHPKNCSCFECKESLETCCQKHKLFHPDTCSCEDRCPFHTRPCASGKTACAKHCRFPKEKRAAQGPHSRKNP
- fold greater affinity than VEGF-DSSTS.IISS [5]: 94 fold
- Kd [6]: 1600 nM
- Kd [7]: 490 nM

B3: VEGF-D-FULL-N-FLAG: full-length VEGF-D tagged with FLAG at the N-terminus; preparation contained traces of partially processed material (protein)
chain: B1 chain
modifications: left off: small tags and cut ends
notes: full-length VEGF-D tagged with FLAG at the N-terminus; preparation contained traces of partially processed material
- apparent affinity for VEGFR-2 relative to unprocessed mutant VEGF-DSSTS.IISS (VEGFR-2): ~94 fold

B4: First primer pair: shRNA primer pair (SEQ ID NO:15 and 16) targeting bases 457-476 of human furin (nucleic acid)
chain 1: GACGATGGCATCGAGAAGAATTCAAGAGATTCTTCTCGATGCCATCGTCTTTTTT
chain 2: AATTAAAAAAGACGATGGCATCGAGAAGAATCTCTTGAATTCTTCTCGATGCCATCGTC
- knockdown of furin protein expression in vitro (furin): almost complete knockdown

B5: Second shRNA pair: shRNA primer pair (SEQ ID NO:17 and 18) targeting bases 558-575 of human furin (nucleic acid)
chain 1: CACACAGATGAATGACAATTCAAGAGATTGTCATTCATCTGTGTGTTTTTT
chain 2: AATTAAAAAACACACAGATGAATGACAATCTCTTGAATTGTCATTCATCTGTGTG
- knockdown of protein expression in vitro (furin): 70-80%

The next lines start with the values.

- Kd [1]: 44 nM
- Kd [2]: 8.7 nM
Molecule: mature VEGF-D (designated VEGF-DΔNΔC) (from UniProt O43915 93-201)

- fold greater affinity than VEGF-DSSTS.IISS [3]: 18 fold
- fold greater apparent affinity than VEGF-DSSTS.IISS [4]: 17000 fold
Molecule: mature VEGF-D (designated VEGF-DΔNΔC) (from UniProt O43915 93-201) (ligand)

- Kd [6]: 150000 nM
- Kd [7]: 790 nM
B2: VEGF-DSSTS.IISS (ligand)
chain: B1 chain with R62S, R65S, R181S, R182S

- binding result (VEGFR-1-Ig): no binding
B6: mature form of VEGF-D generated by furin (ligand, human, UniProt O43915 89-205, looked up)
chain: FAATFYDIETLKVIDEEWQRTQCSPRETCVEVASELGKSTNTFFKPPCVNVFRCGGCCNEESLICMNTSTSYISKQLFEISVPLTSVPELVPVKVANHTGCKCLPTAPRHPYSIIRR
notes: range 89-205; Present in conditioned medium of LoVo cells co-transfected with pVDAPEX FULL-N-FLAG and pcDNA3:furin; not purified; also called ˜21 kDa VEGF-D species; mature VEGF-D

- binding to the extracellular domain of VEGFR-2 [8]: binds
- binding to the extracellular domain of VEGFR-3 [9]: binds
B7: mature form of VEGF-D generated by furin: ~21 kDa VEGF-D species from LoVo cells co-transfected with VEGF-D-FULL-N-FLAG and furin expression constructs (protein)
chain: B6 chain
